Test results published in patent US20110165161A1, “ANTI-EPCAM ANTIBODIES THAT INDUCE APOPTOSIS OF CANCER CELLS AND METHODS USING SAME” (priority 2009, published 2011).
Marks after values point to notes of the source that are not given here.

Tests used:
[1] = system: Pharynx cancer FaDu cells; assay: Antibody cytotoxicity assay (Annexin V + PI), FaDu; format: cell-based; details: 1, 3 and 10 μg/ml, overnight
Method: (§1) After a 17-20 hr incubation at 37° C., cells were stained with 0.3 μl of FITC-conjugated Annexin V (Strong Biotech Corp. Cat. No. AVK250) in 50 μl Annexin V binding buffer (Strong Biotech Corp. Cat. No. AVK250) at RT for 20 min. After wash, the cells were then stained with 0.3 μl of propidium iodide in 200 μl Annexin V binding buffer. Annexin V and Propidium Iodide were used as a joint indicator for cell death. The data were acquired with BD FACSCalibur based on an acquisition of 3,000-5,000 cells and analyzed with the Cell Quest software. The combined percentages of the Annexin V+/PI+, Annexin V+/PI− and Annexin V−/PI+populations were considered as dead cells.

[2] = system: COLO 205 colon cancer cells; assay: Cytotoxicity of anti-EpCAM antibodies in combination with oxaliplatin in COLO 205; format: cell-based, human; details: 24 hr
Method: Oxaliplatin, combined with infusional administration of 2 other chemotherapy drugs, 5-fluorouracil/leucovorin (5-FU/LV), is now considered as one of the as first-line treatments for people with advanced carcinoma of the colon or rectum (André et al. (2004) N Engl J Med 350(23):2343-2351). To test the cytotoxicity of anti-EpCAM antibodies in the presence of oxaliplatin, 1×10^5 COLO 205 cells were seeded to each well of a 96-well plate, and then 0.03, 0.3 and 3 μg/ml of anti-EpCAM or control (9E10) mAbs in combination with oxaliplatin at concentration of 0, 0.01, 0.1, and 1 μg/ml diluted in the medium were added into the cells. After a 24-hr incubation at 37° C., the cells were stained with 0.3 μl of FITC-conjugated Annexin V (Strong Biotech Corp. Cat. No. AVK250) in 50 μl Annexin V binding buffer (Strong Biotech Corp. Cat. No. AVK250) at RT for 20 min. After wash, the cells were then stained with 0.3 μl of propidium iodide in 200 μl Annexin V binding buffer. Annexin V and Propidium Iodide were used as a joint indicator for measuring cell death. The data were acquired with BD FACSCalibur based on an acquisition of 3,000-5,000 cells and analyzed with the Cell Quest software. The combined percentages of the Annexin V+/PI+, Annexin V+/PI− and Annexin V−/PI+populations were considered as dead cells.

[3] = system: Colorectal cancer DLD-1 cells; assay: Antibody cytotoxicity assay (Annexin V + PI), DLD-1; format: cell-based; details: 1, 3 and 10 μg/ml, overnight
Method: as §1

[4] = system: Prostate cancer LNCaP cells; assay: Antibody cytotoxicity assay (Annexin V + PI), LNCaP; format: cell-based; details: 1, 3 and 10 μg/ml, overnight
Method: as §1

[5] = system: Gastric cancer NCI-N87 cells; assay: Antibody cytotoxicity assay (Annexin V + PI), NCI-N87; format: cell-based; details: 1, 3 and 10 μg/ml, overnight
Method: as §1

[6] = system: Breast cancer T-47D cells; assay: Antibody cytotoxicity assay (Annexin V + PI), T-47D; format: cell-based; details: 1, 3 and 10 μg/ml, overnight
Method: as §1

DLD-1 xenograft = assay: Colorectal cancer DLD-1 xenograft in SCID mice; format: in vivo; details: for tumor volume Mean ± SD: 12.5 mg/kg i.p.
Method: (§2) Whether the in vitro apoptosis-inducing activity of anti-EpCAM antibodies has any in vivo biological relevance was studied in the xenograft model. […] 5×10^6 DLD-1 or 3×10^6 NCI-H358 cells were implanted subcutaneously into the hind flank region of SCID mice (6-7 weeks) on day 0. Treatment by intraperitoneal injection with antibodies at 12.5 mg/kg for DLD-1 or 30 mg/kg for NCI-H358 in 0.1 ml PBS started on day 1 after tumor-cell inoculation and was repeated at days 4, 8, 11, 15, 18, 22 and 25. As control, 9E10 (an mouse anti-myc antibody) at the same dose were used. Five or six mice were used in each group of the experiment. Tumor growth was assessed based on twice-weekly measurement of tumor volume (mm^3) by calipers and the tumor size was calculated using the formula: π/6×larger diameter×(smaller diameter)^2 (Kievit E, Cancer Research, 60:6649-55). Statistical analysis of tumor growth was performed using the Student's t-test.

[7] = system: Ovarian cancer NIH:OVCAR-3 cells; assay: Antibody cytotoxicity assay (Annexin V + PI), NIH:OVCAR-3; format: cell-based; details: 1, 3 and 10 μg/ml, overnight
Method: as §1

NCI-H358 xenograft = assay: Lung cancer NCI-H358 xenograft in SCID mice; format: in vivo; details: for tumor volume Mean ± SD: 30 mg/kg i.p.
Method: as §2

[8] = system: NCI-H358 lung cancer cells; assay: Cell death in NCI-H358 lung cancer cells (Annexin V + PI); format: cell-based, human; details: mean of 5 experiments; mAb 10 μg/ml; 17 hr
Method: 5×10^4 NCI-H358 cells were seeded to each well of a 96-well plate, and then 10 μg/ml of anti-EpCAM or control (9E10) mAbs diluted in the medium was added into the cells. After a 17-hr incubation at 37° C., the cells were stained with 0.3 μl of FITC-conjugated Annexin V (Strong Biotech Corp. Cat. No. AVK250) in 50 μl Annexin V binding buffer (Strong Biotech Corp. Cat. No. AVK250) at RT for 20 min. After wash, the cells were then stained with 0.3 μl of propidium iodide in 200 μl Annexin V binding buffer. Annexin V and Propidium Iodide were used as a joint indicator for measuring cell death. The data were acquired with BD FACSCalibur based on an acquisition of 3,000-5,000 cells and analyzed with the Cell Quest software. The combined percentages of the Annexin V+/PI+, Annexin V+/PI− and Annexin V−/PI+populations were considered as dead cells.

CHO parental cells = assay: FACS binding of anti-EpCAM antibodies to CHO parental cells; parameters: species or system Chinese hamster; details: antibody 0.1 μg/ml; HPS at 300x dilution
Method: 1×10^5 CHO/EpCAM or CHO parental cells were seeded in each well of a v-bottomed 96-well plate and incubated with purified anti-EpCAM antibodies or mouse IgG control antibody 9E10 at concentration of 0.1 μg/ml. A 300× dilution of human cell hyper-immune serum (HPS 300×) was used as binding positive control for both cell lines here. After 1 hr incubation at 4° C., cells were washed twice with 200 μl FACS buffer (1×PBS containing 1% FBS), stained with 100 μl of 1 μg/ml goat-anti-mouse IgG-PE (Southern Biotech, Cat. No. 1032-09) in FACS buffer and then incubated at 4° C. for 30 min. Cells were washed thrice with FACS buffer and analyzed by flow cytometry (BD LSR, BD Life Sciences).

[9] = system: Lung cancer NCI-H520 cells; assay: Antibody cytotoxicity assay (Annexin V + PI), NCI-H520; format: cell-based; details: 1, 3 and 10 μg/ml, overnight
Method: as §1

B1: 12H8: murine anti-human EpCAM monoclonal antibody (IgG2a, K), hybridoma m342-12H8.3; VH SEQ ID NO:3, VL SEQ ID NO:5 (antibody, listed as Mus musculus, V domains shown)
VH: QIQLVQSGPELKKPGETVKISCKTSGYTFTDYSMHWVNQAPGKGLKWMGWINTETGEPTYTDDFKGRFAFSLETSASTAYLQINNLKNEDTATYFCARTAVYWGQGTTLTVSS
VL: DIQMTQSPSSLSASLGERVSLTCRASQEISGSLSWLQQKPDGTIKRLIYAASTLNSGVPKRFSGRRSGSDYSLTISSLESEDFVDYYCLQYSSYPWSFGGGTKLEIKR
Question: For B1, which “Induction of cell death (in words)” value [1] is on record?
Answer: The value was “substantial cell death”.

Question: What about the “% of Annexin V + PI staining (untreated background subtracted)” value ([2]; mAb 0.03 μg/ml + oxaliplatin 0.01 μg/ml) of the same molecule?
Answer: The value was 10%.

Question: And the “% of Annexin V + PI staining (untreated background subtracted)” value ([2]; mAb 0.03 μg/ml + oxaliplatin 0.1 μg/ml)?
Answer: The value was 9%.

Question: What about the “% of Annexin V + PI staining (untreated background subtracted)” value ([2]; mAb 0.03 μg/ml + oxaliplatin 1 μg/ml) of the same molecule?
Answer: Its value is 14%.

Question: And the “% of Annexin V + PI staining (untreated background subtracted)” value ([2]; mAb 0.03 μg/ml, oxaliplatin 0 μg/ml)?
Answer: The value was 9%.

Question: And the “% of Annexin V + PI staining (untreated background subtracted)” value ([2]; mAb 0.3 μg/ml + oxaliplatin 1 μg/ml)?
Answer: The value was 35%.

Question: And the “% of Annexin V + PI staining (untreated background subtracted)” value ([2]; mAb 0.3 μg/ml, oxaliplatin 0 μg/ml)?
Answer: The value was 20%.

Question: And the “% of Annexin V + PI staining (untreated background subtracted)” value ([2]; mAb 3 μg/ml + oxaliplatin 0.01 μg/ml)?
Answer: Its value is 22%.

Question: What about the “% of Annexin V + PI staining (untreated background subtracted)” value ([2]; mAb 3 μg/ml + oxaliplatin 0.1 μg/ml) of the same molecule?
Answer: Its value is 26%.

Question: And the “% of Annexin V + PI staining (untreated background subtracted)” value ([2]; mAb 3 μg/ml + oxaliplatin 1 μg/ml)?
Answer: The value was 38%.

Question: And the “% of Annexin V + PI staining (untreated background subtracted)” value ([2]; mAb 3 μg/ml, oxaliplatin 0 μg/ml)?
Answer: The value was 17%.

Question: What about the “Induction of cell death (in words)” value [3] of the same molecule?
Answer: Its value is “substantial cell death”.

Question: What about the “Induction of cell death (in words)” value [4] of the same molecule?
Answer: Its value is “substantial cell death”.

Question: What about the “Induction of cell death (in words)” value [5] of the same molecule?
Answer: The value was “substantial cell death”.

Question: What about the “Induction of cell death (in words)” value [6] of the same molecule?
Answer: Its value is “substantial cell death”.

Question: What about the “Inhibition of tumor growth (in words)” value (DLD-1 xenograft; colorectal (DLD-1) xenograft) of the same molecule?
Answer: The value was “efficiently inhibited”.

Question: What about the “tumor volume Mean ± SD” value (DLD-1 xenograft; d29) of the same molecule?
Answer: The value was 296 ± 154* mm^3.

Question: What about the “tumor volume Mean ± SD” value (DLD-1 xenograft; d32) of the same molecule?
Answer: Its value is 396 ± 156* mm^3.

Question: What about the “tumor volume Mean ± SD” value (DLD-1 xenograft; d36) of the same molecule?
Answer: Its value is 521 ± 189* mm^3.

Question: What about the “tumor volume Mean ± SD” value (DLD-1 xenograft; d39) of the same molecule?
Answer: The value was 619 ± 232* mm^3.

Question: What about the “tumor volume Mean ± SD” value (DLD-1 xenograft; d43) of the same molecule?
Answer: Its value is 727 ± 270* mm^3.

Question: What about the “tumor volume Mean ± SD” value (DLD-1 xenograft; d46) of the same molecule?
Answer: The value was 839 ± 292* mm^3.

Question: What about the “tumor volume Mean ± SD” value (DLD-1 xenograft; d49) of the same molecule?
Answer: The value was 898 ± 207* mm^3.

Question: And the “Induction of cell death (in words)” value [7]?
Answer: The value was “substantial cell death”.

Question: And the “tumor volume Mean ± SD” value (NCI-H358 xenograft; d46)?
Answer: Its value is 325 ± 132* mm^3.

Question: And the “tumor volume Mean ± SD” value (NCI-H358 xenograft; d50)?
Answer: The value was 475 ± 224* mm^3.

Question: What about the “tumor volume Mean ± SD” value (NCI-H358 xenograft; d53) of the same molecule?
Answer: The value was 597 ± 304* mm^3.

Question: What about the “tumor volume Mean ± SD” value (NCI-H358 xenograft; d57) of the same molecule?
Answer: The value was 656 ± 274* mm^3.

Question: And the “tumor volume Mean ± SD” value (NCI-H358 xenograft; d60)?
Answer: Its value is 680 ± 279* mm^3.

Question: What about the “tumor volume Mean ± SD” value (NCI-H358 xenograft; d64) of the same molecule?
Answer: Its value is 859 ± 326* mm^3.

Question: What about the “tumor volume Mean ± SD” value (NCI-H358 xenograft; d67) of the same molecule?
Answer: The value was 1076 ± 464* mm^3.

Question: And the “Inhibition of tumor growth (in words)” value (NCI-H358 xenograft; lung (NCI-H358) xenograft)?
Answer: Its value is “efficiently inhibited”.

Question: What about the “% of Annexin V + PI staining (untreated background subtracted), Mean ± SEM” value [8] of the same molecule?
Answer: Its value is 33.6 ± 2.1%.

Question: And the “Binding (FACS, Mean fluorescence intensity (MFI)) CHO” value (CHO parental cells)?
Answer: Its value is 5.

Question: What about the “Induction of cell death (in words)” value [9] of the same molecule?
Answer: Its value is “substantial cell death”.
